# Target: the molecule itself
# Experiment: cross-linking
protein,measurement,value
"G6PD of MEF cells (enzyme, mouse (endogenous in MEF), UniProt Q00612 1-515, looked up) MAEQVALSRTQVCGILREELYQGDAFHQADTHIFIIMGASGDLAKKKIYPTIWWLFRDGLLPEDTFIVGYARSRLTVDDIRKQSEPFFKATPEERPKLEEFFARNSYVAGQYDDAASYKHLNSHMNALHQGMQANRLFYLALPPTVYEAVTKNIQETCMSQTGWNRIIVEKPFGRDLQSSNQLSNHISSLFREDQIYRIDHYLGKEMVQNLMVLRFANRIFGPIWNRDNIACVILTFKEPFGTEGRGGYFDEFGIIRDVMQNHLLQMLCLVAMEKPATTGSDDVRDEKVKVLKCISEVETDNVVLGQYVGNPNGEGEAANGYLDDPTVPHGSTTATFAAAVLYVENERWDGVPFILRCGKALNERKAEVRLQFRDVAGDIFHQQCKRNELVIRVQPNEAVYTKMMTKKPGMFFNPEESELDLTYGNRYKNVKLPDAYERLILDVFCGSQMHFVRSDELREAWRIFTPLLHKIDREKPQPIPYVYGSRGPTEADELMKRVGFQYEGTYKWVNPHKL",stoichiometry N,2

# From article PMC3110666 (Nature cell biology, 2011)
